Consider four variants from IntAct's records for PubMed 15020713.

Sequences and labels used below:
B1: EH domain-containing protein 1 (Homo sapiens), Q9H4M9 (parent)
chain: MFSWVSKDARRKKEPELFQTVAEGLRQLYAQKLLPLEEHYRFHEFHSPALEDADFDNKPMVLLVGQYSTGKTTFIRHLIEQDFPGMRIGPEPTTDSFIAVMHGPTEGVVPGNALVVDPRRPFRKLNAFGNAFLNRFMCAQLPNPVLDSISIIDTPGILSGEKQRISRGYDFAAVLEWFAERVDRIILLFDAHKLDISDEFSEVIKALKNHEDKIRVVLNKADQIETQQLMRVYGALMWSLGKIINTPEVVRVYIGSFWSHPLLIPDNRKLFEAEEQDLFKDIQSLPRNAALRKLNDLIKRARLAKVHAYIISSLKKEMPNVFGKESKKKELVNNLGEIYQKIEREHQISPGDFPSLRKMQELLQTQDFSKFQALKPKLLDTVDDMLANDIARLMVMVRQEESLMPSQVVKGGAFDGTMNGPFGHGYGEGAGEGIDDVEWVVGKDKPTYDEIFYTLSPVNGKITGANAKKEMVKSKLPNTVLGKIWKLADVDKDGLLDDEEFALANHLIKVKLEGHELPADLPPHLVPPSKRRHE
partner: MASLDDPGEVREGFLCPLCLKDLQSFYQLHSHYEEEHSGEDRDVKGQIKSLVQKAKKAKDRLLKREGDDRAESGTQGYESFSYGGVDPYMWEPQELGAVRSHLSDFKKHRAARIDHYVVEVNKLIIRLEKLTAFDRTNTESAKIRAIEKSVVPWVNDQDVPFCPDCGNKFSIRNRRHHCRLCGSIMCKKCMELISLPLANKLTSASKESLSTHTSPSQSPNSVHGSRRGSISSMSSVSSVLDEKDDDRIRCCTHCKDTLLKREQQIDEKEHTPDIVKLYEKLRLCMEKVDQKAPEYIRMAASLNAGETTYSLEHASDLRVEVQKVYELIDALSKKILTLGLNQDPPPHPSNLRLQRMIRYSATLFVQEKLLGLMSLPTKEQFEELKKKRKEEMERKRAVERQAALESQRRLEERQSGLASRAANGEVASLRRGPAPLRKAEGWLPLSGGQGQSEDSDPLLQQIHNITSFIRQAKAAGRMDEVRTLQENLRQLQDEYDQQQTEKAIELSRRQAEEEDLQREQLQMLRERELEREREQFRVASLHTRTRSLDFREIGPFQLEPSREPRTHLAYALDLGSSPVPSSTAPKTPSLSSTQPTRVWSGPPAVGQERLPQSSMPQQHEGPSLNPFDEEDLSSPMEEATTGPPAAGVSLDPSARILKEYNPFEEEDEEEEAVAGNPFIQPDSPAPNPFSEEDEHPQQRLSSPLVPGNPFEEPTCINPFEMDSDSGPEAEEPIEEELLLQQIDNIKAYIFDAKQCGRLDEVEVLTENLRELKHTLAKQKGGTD
B2: Rabenosyn-5 (Homo sapiens), Q9H1K0 (parent)
chain: B1 partner
partner: B1 chain

One assay covers variants of B1. Particulars: with rbns5_human RBSN.
For W485A, the “effect of a mutation on the interaction” value is reported as “disrupting interaction”.

In another assay the parent is B2. Particulars: with ehd1_human EHD1, Q9H4M9.
For the variant N662A;F664A, the “effect of a mutation on the interaction” value is on record as “decreasing interaction strength”.

Take N626A;F628A;N662A;F664A: the “effect of a mutation on the interaction” value is given as “disrupting interaction strength”.

As to N626A;F628A, the “effect of a mutation on the interaction” value is listed as “decreasing interaction strength”.
